In the supplement of paper PMC9233669:
Variants at the floor of the assay were thinned out.

Columns and labels:
biotinyl-Phe-oxazolone = assay: self-aminoacylation, catalytic enhancement (BFO) (fold over background); higher = more active; k-Seq, kA / k0A0; sequences stand for … in GGGAAUGGAUCCACAUCUACGAAUUC…UUCACUGCAGACUUGACGAAGCUG
Procedure, shortened: (§1)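 Mutagenized RNA pools with a 21-nt variable region (0.43 μM) were reacted with each biotinyl-aminoacyl-oxazolone at 2–1250 μM for 90 minutes at room temperature, in 50 μL HEPES/NaCl/KCl/MgCl2/CaCl2 buffer containing 5% acetonitrile at pH 6.9–7.0. RNA captured on streptavidin was quantified by triplicate qPCR and by Illumina sequencing. The fraction reacted for each sequence was fit to a pseudo-first-order model with bootstrapping, and catalytic enhancement is the median kA divided by the uncatalyzed rate, taken as the low-activity peak of a bimodal Gaussian fit.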

biotinyl-Ile-oxazolone = assay: self-aminoacylation, catalytic enhancement (BIO) (fold over background); higher = more active; k-Seq, kA / k0A0; sequences stand for … in GGGAAUGGAUCCACAUCUACGAAUUC…UUCACUGCAGACUUGACGAAGCUG
Procedure, shortened: as §1

biotinyl-Met-oxazolone = assay: self-aminoacylation, catalytic enhancement (BMO) (fold over background); higher = more active; k-Seq, kA / k0A0; sequences stand for … in GGGAAUGGAUCCACAUCUACGAAUUC…UUCACUGCAGACUUGACGAAGCUG
Procedure, shortened: as §1

biotinyl-Val-oxazolone = assay: self-aminoacylation, catalytic enhancement (BVO) (fold over background); higher = more active; k-Seq, kA / k0A0; sequences stand for … in GGGAAUGGAUCCACAUCUACGAAUUC…UUCACUGCAGACUUGACGAAGCUG
Procedure, shortened: as §1

biotinyl-Leu-oxazolone = assay: self-aminoacylation, catalytic enhancement (BLO) (fold over background); higher = more active; k-Seq, kA / k0A0; sequences stand for … in GGGAAUGGAUCCACAUCUACGAAUUC…UUCACUGCAGACUUGACGAAGCUG
Procedure, shortened: as §1

biotinyl-Trp-oxazolone = assay: self-aminoacylation, catalytic enhancement (BWO) (fold over background); higher = more active; k-Seq, kA / k0A0; sequences stand for … in GGGAAUGGAUCCACAUCUACGAAUUC…UUCACUGCAGACUUGACGAAGCUG
Procedure, shortened: as §1

Sequence	self-aminoacylation (biotinyl-Phe-oxazolone)	self-aminoacylation (biotinyl-Ile-oxazolone)	self-aminoacylation (biotinyl-Met-oxazolone)	self-aminoacylation (biotinyl-Val-oxazolone)	self-aminoacylation (biotinyl-Leu-oxazolone)	self-aminoacylation (biotinyl-Trp-oxazolone)
AAGUUUGCUAAUUCUCGCAAG [Fam3.1 aminoacylation ribozyme variant]	0.747	1.26	1.06	0.999	1.08	2.64
AAGCUUGCUAAUAGUCGAAAG [Fam3.1 aminoacylation ribozyme variant]	3.53	1.58	1.73	1.35	1.16	1.88
AUUACCCUGGUCUUCGACUGA [Fam2.1 aminoacylation ribozyme variant]	0.68	0.992	0.832	0.737	0.717	0.675
CCACACUUCAAGCAUACGGUC [Fam1B.1 aminoacylation ribozyme variant]	0.63	0.564	0.538	0.836	0.501	0.453
AGUACCCUGGUCAUAGAGUGA [Fam2.1 aminoacylation ribozyme variant]	15.4	2.33	4.15	2.48	4.1	4.67
CCGCACUUAAAGCAAUCGGUC [Fam1B.1 aminoacylation ribozyme variant]	0.932	1.13	1.1	1.25	1.05	1.15
ACUCACCUUGGUCAUCGGGUG [Fam2.2 aminoacylation ribozyme variant]	37.8	4.9	6.92	5.78	7.85	9.04
CUACUUCAGAUAAUCGGUCUG [Fam1A.1 aminoacylation ribozyme variant]	0.629	0.643	0.648	0.686	0.675	0.432
AUUCACCUAGGCAAUCGGGUG [Fam2.2 aminoacylation ribozyme variant]	35.4	2.52	3.95	2.98	4.75	3.92
CCACACUGCAAGCAAUCGGUG [Fam1B.1 aminoacylation ribozyme variant]	31.5	3.4	4.9	3.12	7.11	5.82
CAACUUCAAUCAAUCGGUCUG [Fam1A.1 aminoacylation ribozyme variant]	35.7	1.43	1.36	1.4	2.03	24
AUUACCCUAGUCUUCGAGUGA [Fam2.1 aminoacylation ribozyme variant]	24.6	3.09	5.54	3.22	5	7.87
CUACUUCACACAAUCGGUCUU [Fam1A.1 aminoacylation ribozyme variant]	0.701	0.963	0.639	0.85	0.856	0.713
AUUCACCCAGGUCAUCCGGUG [Fam2.2 aminoacylation ribozyme variant]	90.7	6.38	8.64	6.29	12.7	8.51
CUACUUCAAGCGAUCGGUCUG [Fam1A.1 aminoacylation ribozyme variant]	0.917	0.77	0.769	0.781	0.799	0.654
CUAUUUCAAAGAAUCGGUCUG [Fam1A.1 aminoacylation ribozyme variant]	1.19	0.887	0.93	0.794	0.86	1.12
AUUGACCUAGGUCAUAGGGUG [Fam2.2 aminoacylation ribozyme variant]	1.72	1.58	1.27	1.46	1.61	1.81
AUUACCCUGGUCCUCGAGUGU [Fam2.1 aminoacylation ribozyme variant]	2.62	1.59	2.78	1.73	3.22	3.02
AAGUUUGCUAUUAGUCUCAAG [Fam3.1 aminoacylation ribozyme variant]	1.66	0.998	0.976	1.07	0.928	0.975
AUUACCCUGGUAAGCGAGUGA [Fam2.1 aminoacylation ribozyme variant]	42.1	2.82	5.79	3.21	4.55	6.48
AUUCGCCUAGGUCAUCGGGUU [Fam2.2 aminoacylation ribozyme variant]	75.6	8.6	14.1	7.13	20.5	10.8
AUAACCUUGGUCAUCGAGUGA [Fam2.1 aminoacylation ribozyme variant]	27.1	2.94	5.95	3.3	6.06	7.25
AUUCCCCUAGGUCAUCGCGUG [Fam2.2 aminoacylation ribozyme variant]	826	64.1	102	77.6	141	99.5
AUACUUCCAACAAUCGGUCUG [Fam1A.1 aminoacylation ribozyme variant]	0.856	0.782	0.705	0.727	0.743	0.721
UUCACCCUGGUCAUCGAGUGA [Fam2.1 aminoacylation ribozyme variant]	13.2	5.88	11.3	6.29	10.6	12.7
AAGUUUGCUAAUAGUCAUAAG [Fam3.1 aminoacylation ribozyme variant]	17.9	1.44	1.27	1.25	1.15	5.59

Sequence	self-aminoacylation (biotinyl-Phe-oxazolone)	self-aminoacylation (biotinyl-Ile-oxazolone)	self-aminoacylation (biotinyl-Met-oxazolone)	self-aminoacylation (biotinyl-Val-oxazolone)	self-aminoacylation (biotinyl-Leu-oxazolone)	self-aminoacylation (biotinyl-Trp-oxazolone)
AAGUUUGCUAAUUGUCGCAUG [Fam3.1 aminoacylation ribozyme variant]	1.11	0.982	1.18	1.07	1.32	1.49
CUACUUCAAUCAAUCUGUCUG [Fam1A.1 aminoacylation ribozyme variant]	1.25	0.599	0.539	0.597	0.57	0.721
AAGUUUGCUUAUAGUCUCAAG [Fam3.1 aminoacylation ribozyme variant]	1.41	1.05	1.08	0.888	0.902	0.69
AUUACCAGGGUCAUCGAGUGA [Fam2.1 aminoacylation ribozyme variant]	17.2	3.1	4.43	3.1	5.09	5.56
AUUAACCUACGUCAUCGGGUG [Fam2.2 aminoacylation ribozyme variant]	47.5	3.99	6.52	3.84	8.3	5.8
CCACCCUUCAACCAAUCGGUC [Fam1B.1 aminoacylation ribozyme variant]	46	1.19	1.35	1.47	1.44	26.2
ACUACCCUAGUCAUCGAGUGA [Fam2.1 aminoacylation ribozyme variant]	8.71	2.95	4.62	2.64	5.39	5.01
CUAAUUCAAACAAUCGCUCUG [Fam1A.1 aminoacylation ribozyme variant]	0.713	0.628	0.668	0.653	0.527	0.67
CCACACUUCCCGCAAUCGGUC [Fam1B.1 aminoacylation ribozyme variant]	0.932	1.42	1.5	1.78	1.73	1.37
AUUCACCUUGGUCAUAGGGUG [Fam2.2 aminoacylation ribozyme variant]	1.15	0.995	1.21	1.16	1.59	1.05
AUACUUCAAAUAAUCGGUCUG [Fam1A.1 aminoacylation ribozyme variant]	5.26	0.992	0.965	0.877	0.998	4.17
AUGCAACUAGGUCAUCGGGUG [Fam2.2 aminoacylation ribozyme variant]	56.2	6.38	8.13	5.58	9.82	8.26
AAGUUUGCUAAUUGUCGCAGG [Fam3.1 aminoacylation ribozyme variant]	2.72	1.19	1.43	1.3	1.45	1.34
AUAACCCUGAUCAUCGAGUGA [Fam2.1 aminoacylation ribozyme variant]	20.9	2.79	6.16	3.27	6.46	8.47
AGUCACCUAGGUCAUCGGGUU [Fam2.2 aminoacylation ribozyme variant]	21.7	4.28	5.25	4.18	7.09	4.8
AUUCACUUGGGUCAUCGGGUG [Fam2.2 aminoacylation ribozyme variant]	43.9	4.61	6.84	4.44	7.5	6.5
GCCCACUUCAAGCAAUCGGUC [Fam1B.1 aminoacylation ribozyme variant]	24.1	1.42	1.27	1.67	1.77	18.7
CCAAACUUCAAUCAAUCGGUC [Fam1B.1 aminoacylation ribozyme variant]	36.8	1.29	1.43	1.28	1.73	23.5
AUUCCCCUGGUCAUCGAGUGU [Fam2.1 aminoacylation ribozyme variant]	15.2	2.39	3.09	2.61	3.28	3.8
CAACACUUCAAGCAAUCGGUG [Fam1B.1 aminoacylation ribozyme variant]	4.92	3.09	4.13	2.73	4.86	3.87
AUUACCCUGGUCAUCGAGGGC [Fam2.1 aminoacylation ribozyme variant]	1.09	1.31	1.77	1.24	1.56	1.12
ACACACCUCAAGCAAUCGGUC [Fam1B.1 aminoacylation ribozyme variant]	1.19	0.848	0.58	0.927	0.763	0.883
CCGCAGUUCAAGCAAUCGGUC [Fam1B.1 aminoacylation ribozyme variant]	5.75	1.58	1.96	1.82	1.85	6.86
CUACCUCAAACAAUCGGUUUG [Fam1A.1 aminoacylation ribozyme variant]	2.48	0.904	0.938	1.16	0.715	1.56
AUUCACCUAGUUCAUCGGGCG [Fam2.2 aminoacylation ribozyme variant]	5.7	1.95	2.19	1.93	1.96	2.88
